Data: the nanobody polyreactivity screen of Harvey et al. (2022)

Assay: yeast display, Sf9 membrane polyspecificity reagent, FACS + sequencing; frameworks hold sequencing errors
Summary of the method: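 A nanobody's polyreactivity label depends on the gate it was sorted from. Yeast display cells were stained with 10% biotinylated, detergent-solubilized Sf9 membrane reagent for 1 hour at 4 °C, enriched on streptavidin microbeads and sorted by FACS. The low and high (top ~1%) gates were set on anti-HA fluorescence for expression and streptavidin fluorescence for reagent binding.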

Sequence	polyreactivity (PSR sort gate)
QVQLVESGGCLVQAGGSLRLSCAASGFTFWRNVMGWYRQAPGKERELVAVISRGGSTNYADSVKGRFTISRDNAMNTVYLQMNSLKPEDTAVYYCAKYARGPSKVDYWGQGTQVTVSS	high polyreactivity
QVQLVESGGCLVQAGGSLRLSCAASGGTFHRYAMGGYRQAPGKERELVAAISGSGASTYYADSVKGRFTISRDNAKNTVYLQMNSLKPEDTAVYYCNAYSYPYWYRYYYWGQGTQVTVSS	high polyreactivity
QVQLVESGGCLVQAGGSLRLSCAASGGTFSRNAMGWYRQAPGKERELVAAINSSGVSTSYAYSVKGRFTISRDNEKNTVYLQMNSLKPEDTAFYYCAAETSSAEVDYWGQGTQVTVSS	low polyreactivity
QVQLVESGGCLVQAGGSLRLSCAASGITFRYYAMGWYRQAPGKERELVATISYSGGTTYYAESVKGRFTISRDNAKNTVYLQMNSLKPEDTAVYYCKAVYRYKYGYRDYDYWGQGSQVTVSS	high polyreactivity
QVQLVESGGCLVQAGGSLRLSCAASGITFVSNVMGWYRQATGKEREFVAAITGRGDTTYADSVKGRFTISRDNAKNTVYLQMNSLKPEDTAVYYCAAEYSVPYRGWDGYEYWGQGTQVTVSS	low polyreactivity
QVQLVESGGCLVQAGGSLRLSCAASGLTFGSYGMGWYRQAPGKERELVAAITATGGSTYYADSVKGRFTISRDNAKNTVYLQMNSLKPEDTAVYYCAATRRSKVWLYGYWGQGTQVTVSS	high polyreactivity
QVQLVESGGCLVQAGGSLRLSCAASGLTFNKNAMGWYRQAPGKEREFVAAITRRGGSTYYADSVKGRFTISRDNAKNTVYLQMNSLKPEDTAVYYCAVYPASVNPYHYDYWGQGTQVTVSS	high polyreactivity
QVQLVESGGCLVQAGGSLRLSCAASGNIIVGNDMGWYRQAPGKERELGAAISSGDTTSYADSVKGRFTISRDNAKNTVFLQMISLKPEDTAVYYCAAGFTYPYDYWGQGTQVTVSS	low polyreactivity
QVQLVESGGCLVQAGGSLRLSCAASGRIFDRNAMGWYRQAPGKERELVARIDPGDDTNYADSVKGRFTISRDNAKNTVYLQMNSLKPEDTAVYYCATDPDYVLYRTAYYEYDYWGQGTQVTVSS	low polyreactivity
QVQLVESGGCLVQAGGSLRLSCAASGRIFFLYAMGWYRQAPGKERELVAAITWSADGTYYADSVKGRFTISRDNAKNTVYLQMNSLKPEDTAVYYCNADAYTTASSYNWWYYYWGQGTQVTVSS	low polyreactivity
QVQLVESGGCLVQAGGSLRLSCAASGRIFTTNAMGWYRQAPGKERELVAAITYSGGTTYYADSVKGRFTISRDNAKKTVYLQMNSLKPEDTAVYYCAADVKFSTPYDYWGQGTQVTVSS	low polyreactivity
QVQLVESGGCLVQAGGSLRLSCAASGRTFIGYAMGWYRQAPGKERELVAAISSTGGSTYYADSVKGRFTISRDNAKNTVYLQMNSLKPEDTAVYYCATDAARPPRTPDISDVSNFDYWGQGTQVTVSS	low polyreactivity
QVQLVESGGCLVQAGGSLRLSCAASGRTFRGYAMGWYRQAPGKERELVARISVSGGSTYYADSVKGRFTISRDNAKNTVYLQMNSLTPDDTAVYYCNARPYTYWRSQYDYWGQGTQVTVSS	high polyreactivity
QVQLVESGGCLVQAGGSLRLSCAASGRTLYRNAMGWYRPAPGKERELVARITWSGASTYYADSVKGRFTISRDNAKNTVYLQMNSLKPEDTAVYYCAAQYLSRRYGPYYTYNYWGQGTQVTVSS	high polyreactivity
QVQLVESGGCLVQAGGSLRLSCAASGRTYVVNAMGWYRHAPGKESELVAAITTGGSTYYADSVKGRFTISRENAKYTVYLQMNSLKPEDTAVYYCAADIYLYYIFDYWVDYDYWGQCTQVTVSS	high polyreactivity
QVQLVESGGCLVQAGGSLRLSCAASGSIFDRYAMGWYRQAPGKERGLVAAISSSGGSTYYADSVKGRFTISRDNAKNTVYLQMNSLKPEDTAVYYCAAEYYASPYYWSYDYWGQGTQVTVSS	high polyreactivity
QVQLVESGGCLVQAGGSLRLSCAASGSIFIYYAMGWYRQAPGKERELVATISVRGGSTYYADSVKGRFTISRDNAKNTVYLQMNSLKPEDTAVYYCNAVTSGTTKSAYDYWGQGTQVTVSS	high polyreactivity
QVQLVESGGCLVQAGGSLRLSCAASGSIFTKYTMGWYRQAPGRERELVAAITLRGTSTYYADSVKGRFTISRDIAKNTVYLQMNSLKPEDTAVYYCNKLYSWVVAYDYWGQGTQVTVSS	high polyreactivity
QVQLVESGGCLVQAGGSLRLSCAASGSIFTRYAMGWYRQAPGKERELVADIRWGGGDTYYADSVKGRFTISRDNAKNTVYLQMNSLKPEDTAVYYCNADFGAPNTGRPEVQNSDEFGYWGQGTQVTVSS	low polyreactivity
QVQLVESGGCLVQAGGSLRLSCAASGSIFWSYSMGWYRQAPGKERELVAAISSGGSTNYADSVKGRFTISRDNAKNTVYLQMNSLKPEDTAVYYCSARFYTTSVRRKRYDYWGQGTQVTVSS	high polyreactivity
QVQLVESGGCLVQAGGSLRLSCAASGSIFYYYAMGWYRQAPGKERELVADISISGGSTYYADSVKGRFTISRDNAKNTVYLQMNSLKPEDTAVYYCAATDYLWEPTVSNWGYTFDSWGQGTQVTVSS	low polyreactivity
QVQLVESGGCLVQAGGSLRLSCAASGSISTNYAMGWYRQAPGKERELVAAISDSSGSTYYADSVKGRFTISRDNAKNTVYLQMNSLKPVDTAVYYCNADSQGGRDVHYDYEYYYWGQGTQVTVSS	low polyreactivity

Sequence	polyreactivity (PSR sort gate)
QVQLVESGGCLVQAGGSLRLSCAASGSSFSRYTMGWYSQAPGKERELVAVISDSSGRTYYADSVKGRFTISRDTAKNTVYLQMNSLKPEDTAVYYCAAEYSDIYEYCGQGTQVTVSS	low polyreactivity
QVQLVESGGCLVQAGGSLRLSCAASGSTFDGNAMGWYRQAPGKERELVATINSGSSTTYADSVKGRFTISRDNAKNTVYLQMNSLKPEDTAVYYCNVDSGSDSLVYSVRYNYWGQGTQVTVSS	low polyreactivity
QVQLVESGGCLVQAGGSLRLSCAASGSTFIDYAMGWYRQAPGKERELVAAITNGGNTKYADSVKGRFTISRDNAKNTVYLQMNSLKPEDTAVYYCAREPSIFTPSYDYWGQGTQVTVSS	low polyreactivity
QVQLVESGGCLVQAGGSLRLSCAASGSTFLINAMGWYRQAPGKEREFVASIRYRGATTYADSVKGRFTISRDNAKNTVYLQMNTLKPEDTAVYYCAASIWLRYHWGYDYWGQGTQVTVSS	high polyreactivity
QVQLVESGGCLVQAGGSLRLSCAASGSTFPRYAMGWYRQAPGKERELVATINSGGSTYYADSVKGCFTISRDNAKNTVYLQMNSLKPEDTAVYYCAAGYRWTYTSGTYIRYNYWGQGTQVTVSS	high polyreactivity
QVQLVESGGCLVQAGGSLRLSCAASGSTFSPYAMGWYRQAPGKERELVAGITGRGGRTYYADSVKGRFTISRDNAKNTVYLQMNSLKPEDTAVYYCAAKYYGNKRDLYYWGQGTQVTVSS	low polyreactivity
QVQLVESGGCLVQAGGSLRLSCAASGSTFVHNAMGWYRQAPGKERELVAAISESGGGTYYADSVKGRFTISRDNAKNTVYLQMNSLKPEDTAVYYCAAPPAGENWRDGGGYWGQGTQVTVSS	low polyreactivity
QVQLVESGGCLVQAGGSLRLSCAASGYTFSLNAMGWYRQAPGKERELVAAISYSGGSTYYADSVKGRFTISRDNAKNTVYLQMNSLKPEDTAVYYCAVRRPQYSYYWDFDYWGQGTQLTVSS	high polyreactivity
QVQLVESGGCLVQAGGSLRLSCAATGFIFYPDAKGWYRQAPGTEMELVAVITSGGRTYYADSVKGRFTITRDNAKNTVYLQMNSLKPEDTAVYYCAALYLGLWPTDIFDYWGQGTQVTVSS	low polyreactivity
QVQLVESGGCLVQAGGSLRLSCAAYGSIFGGNAMGWYRQAPRKERELVAAITQSGDRTYYADSVKGRFTISRDNANNTFYFQMNSLKPEDTAVYYSAARSPRKYGSIGYYWGQGTQVTVSS	high polyreactivity
QVQLVESGGCLVQAGGSLRLSCASSGFTIWQNAMGWYRQAPGKERELVAGIRLSGGSTYADSEKGRFTISRDNAKNTVYLQMNSLKPEDTAVYYCAARIAGYYRYRSLRYDYWGQGTQGTVSS	high polyreactivity
QVQLVESGGCLVQAGGSLRLSGAASGSISYRNSMGWYRQAPGKERELVAAISSRGGSTFYADSEKGRFTISRDNAKNTVYLQMNSLKPEDTAVYYCAARGYHRFKNVNYWGQGTQVTVSS	high polyreactivity
QVQLVESGGCLVQAGGSLRLSSAASGSTFRVNAMGWYRQAPGKERELVAAISFSGGSTYYADSVKGRFTISRDNAKNTVYLQMNSLKPEDTAVYYCNVDIYLGGDYYYSRYTWGLDYWGQGTQVTVSS	low polyreactivity
QVQLVESGGCLVQAGGSLSLSCAASGFTFTYYDMGWYRQAPGKERELVAAITRRGGRTYYADSVKGRFTISRDNAKNTVYLQMNSLKPEDTAVYYCNADEYGGSTGRKGRYNYWGQGTQVTVSS	low polyreactivity
QVQLVESGGCLVQAGGSPRLSCAASGSILTLYAMGWYRQAPGKERELVAAITSGERTNYADSVKGRFTISRDNAKNTVYLQMNSLKPEDTAVYYCATKRWWGRYDYWGQGTQVTVSS	high polyreactivity
QVQLVESGGCLVQAGGTLRLSCAASGRIFVSYVMGWYSQAPGKEREFVAAIRRSGSSTYYADSVKGRFTISRDNEKNTVYLQMNSLKPEDTAVFYCAAYQRSRTLRRYDYWGQGTEVTVSS	high polyreactivity
QVQLVESGGCLVQARGSLRLSCASSGRMISYNAMGWYRQRPGKDMELGAAINSSGGSTYDADSVKGRFTISRDNAKNTVSLQMNSLKAEDTAFYYCNVLHIPSTTMDYWPQGTQVTVSS	high polyreactivity
QVQLVESGGDLVQAGGSLRLSCAASGSIFCYYVMGWYRQAPGKERELVAAITVSGAGTYNADSVKGRFTISRDNAKNTVYLQMNSLKPEDTAVYYCAARWLGHFYPFFLQGLSGFDYWGQGTQVTVSS	low polyreactivity
QVQLVESGGGFDQAGGSLRLSCAASGITFYDNVMGSYIQAPGKERELVAAITSGGSTNYSDSVKGRFTISRANAKNTVYLQMNSLKPEDTAVYYCAATPYGIGYDYWGQGTEVTVSS	low polyreactivity
QVQLVESGGGFGQAGGSLRLSCAASGFTCGYYAMGWFRQAPGKERELVASISSRGGSTNYADSVKGRFTISRDHAKNTVYLQMNTMKPEDTAVYYCAAEYYRQRYEYDYWRQGTQVTVSS	high polyreactivity
QVQLVESGGGFVQAGGSHRLSCAASGRIFSCNAMGWYRQAPGKERELVAAITWRGTSTYYADSVKGRFTISRDNAKNTVYLQMNSLKPEDTAVYYWNGDYYYPADGRHYHYDYWGQGTQVTVSS	low polyreactivity
